The experiment has as its target β2m lacking the N-terminal six residues of the mature protein (human). In words: SEC; analytical size exclusion chromatography of 1 mg/ml protein in phosphate buffered saline pH 7.3 at 25°C; monomer and dimer peaks. On the technique in general: In gel filtration, larger molecules generally elute earlier.

Take “β2m lacking the N-terminal six residues of the mature protein (domain or fragment)”: the percent dimeric was found to be 4%.
